This note sets out measurements from publication PMC8635433.

Test [1] deals with ChAdOx1 hexon (chimpanzee adenovirus Y25). The experiment in a line: cryo-EM structure.
Test [2] deals with CAR on CHO-CAR cells (UniProt P78310). The experiment in a line: flow cytometry on cells; antibody binding inhibition: serial dilutions of fiber knob (0.00001 to 100 μg per 10^5 cells) on CHO-CAR or CHO-BC1 cells, 30 min on ice, then anti-CAR RmcB or anti-CD46 MEM-258 and Alexa Fluor 488 secondary antibody; IC50 by nonlinear regression. On the technique in general: Flow cytometry measures light scatter and fluorescence of single cells or particles in a stream.
Chain of CAR on CHO-CAR cells (P78310 20-365): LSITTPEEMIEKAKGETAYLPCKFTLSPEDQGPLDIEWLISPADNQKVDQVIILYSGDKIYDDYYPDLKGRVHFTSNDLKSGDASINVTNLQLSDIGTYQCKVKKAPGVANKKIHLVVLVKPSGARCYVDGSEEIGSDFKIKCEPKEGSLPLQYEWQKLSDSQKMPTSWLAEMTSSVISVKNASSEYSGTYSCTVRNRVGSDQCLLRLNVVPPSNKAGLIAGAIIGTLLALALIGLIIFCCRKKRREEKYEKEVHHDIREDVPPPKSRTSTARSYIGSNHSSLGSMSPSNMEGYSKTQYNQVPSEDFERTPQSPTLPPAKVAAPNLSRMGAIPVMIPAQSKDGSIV

Test [3] deals with AZD1222 vaccine preparation of ChAdOx1 (ChAdOx1 nCoV-19) (chimpanzee adenovirus Y25). In words: SPR. Background: SPR reads the build-up and loss of mass on a sensor chip optically.
In test [4] the target is human adenovirus type 26 (HAdV-D26) viral vector (virus particle) (human adenovirus type 26). The experiment in a line: SPR.
In test [5] the target is human adenovirus type 5 (HAdV-C5) viral vector (virus particle) (human adenovirus type 5) (UniProt P04133). The experiment in a line: SPR.
Test [6] has as its target ChAdOx1 penton protein (chimpanzee adenovirus Y25). The experiment in a line: cryo-EM structure.
The target of test [7] is ChAdOx1 pIX (chimpanzee adenovirus Y25). In words: cryo-EM structure.
The target of test [8] is coxsackie and adenovirus receptor (CAR), immobilised for SPR (UniProt P78310). The experiment in a line: SPR; BIAcore T200; about 2000 RU of CAR, DSG2 and CD46 amine-coupled to a CM5 chip; fiber knob proteins flowed over, 1:2 serial dilutions; 25°C, PBS with 0.001% P20, 30 μl/min; 1:1 interaction model.
Test [9] addresses ChAdOx1 fiber knob protein (chimpanzee adenovirus Y25). In words: crystal structure; ChAdOx1 fiber knob, P1, 1.59 Å, four trimers in the asymmetric unit.

Some results are limits rather than exact numbers.

As to ChAdOx1 hexon (natural protein), the stoichiometry N (as a rule, the number of molecules, sites or subunits per partner or assembly) in test [1] turned out to be 3.

Turning to “HAdV-B35 fiber knob protein (domain or fragment)”, the fold higher IC50 (reference not named: HAdV-C5 or ChAdOx1 fiber knob) in [2] was above 1000 fold.

“platelet factor 4 (PF4) (natural protein)”: the results for the Kd in test [3], in [4] and in test [5] were 514 nM, 301 nM and 789 nM, respectively.

Substance “ChAdOx1 penton protein (natural protein)” yielded a stoichiometry N in [6] of 5.

On to ChAdOx1 pIX (natural protein), for which the stoichiometry N in test [7] stood at 4.

Regarding “ChAdOx1 fiber knob protein (domain or fragment; other documents disagree on this pair)”, in test [8], the Kd – broadly, a measure of binding affinity in units of concentration – amounted to 7.16 nM.

For the substance “ChAdOx1 fiber knob protein (domain or fragment)”, the stoichiometry N in test [9] came to 3.
